Data reported in US20110091971A1, “Differentiation of Pluripotent Stem Cells” (priority 2008, published 2011).
Several values for one entry are separate records, joined by “and”; a condition that tells them apart may be missing. Identical values can stand only once. Entries after “also recorded” stand apart in the source; their conditions may differ.

Test system: H1 or H9 human embryonic stem cells
Experiment: Activin A bioassay: differentiation of human embryonic stem cells to definitive endoderm, cell number and SOX17 intensity by high content analysis (96-well, four days);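 as to Cell Number average: Raw total cell count per well from high content imaging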;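 as to Sox 17 Intensity average: total fluorescence of the cell multiplied by cell area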
Format: cell-based
Description: Activin A is an important mediator of differentiation in a broad range of cell types. […] A bioassay that measures this differentiation in human embryonic stem cells was adapted in miniaturized format to 96-well plates for screening purposes. Validation was completed using treatment with commercial sources of activin A and Wnt3a recombinant proteins and measuring protein expression of the transcription factor SOX17, which is considered a representative marker of definitive endoderm.
Live Cell Assay: Briefly, clusters of H1 or H9 human embryonic stem cells were grown on growth factor-reduced MATRIGEL™ (Invitrogen; Cat #356231)-coated tissue culture plastic. Cells were passaged using collagenase (Invitrogen; Cat # Cat #17104-019) treatment and gentle scraping, washed to remove residual enzyme, and plated in a ratio of 1:1 (surface area) on growth factor-reduced MATRIGEL™-coated 96-well plates (black, 96-well; Packard ViewPlates; Cat #6005182). Cells were allowed to attach as clusters and then recover log phase growth over a 1 to 3 day period, feeding daily with MEF conditioned medium supplemented with 8 ng/ml bFGF (R&D Systems; Cat #233-FB).
The assay was initiated by washing the wells of each plate twice in PBS and followed by adding an aliquot (100 μl) of test sample in DMEM:F12 basal medium (Invitrogen; Cat #11330-032) to each well. Test conditions were performed in triplicate, feeding […] by aspirating and replacing the medium from each well with test samples over a total four day assay period. On the first and second day of assay, test samples added to the assay wells were diluted in DMEM:F12 with 0.5% FCS (HyClone; Cat #SH30070.03) and 20 ng/ml Wnt3a (R&D Systems; Cat #1324-WN). On the third and fourth day of assay, test samples added to the assay wells were diluted in DMEM:F12 with 2% FCS, without any Wnt3a. Positive control samples consisted of recombinant human activin A (Peprotech; Cat #120-14) added at a concentration of 100 ng/ml throughout assay plus Wnt3a (20 ng/ml) on days 1 and 2. Negative control samples omitted treatment with both activin A and Wnt3a.
High Content Analysis: At the conclusion of four days of culture, assay plates were washed twice with PBS, fixed with 4% paraformaldehyde at room temperature for 20 minutes, then washed three times with PBS and permeabilized with 0.5% Triton X-100 for 20 minutes at room temperature. Cells were washed again three times with PBS and blocked with 4% chicken serum (Invitrogen; Cat #16110082) in PBS for 30 minutes at room temperature. Primary antibody (goat anti-human SOX17; R&D Systems; cat #AF1924) was diluted 1:100 in 4% chicken serum and added to each well for one hour at room temperature. Alexa Fluor 488 conjugated secondary antibody (chicken anti-goat IgG; Molecular Probes; Cat #) was diluted 1:200 in PBS and added to each sample well after washing three times with PBS. To counterstain nuclei, 4 μg/ml Hoechst 33342 (Invitrogen; Cat #H3570) was added for ten minutes at room temperature. Plates were washed once with PBS and left in 100 μl/well PBS for imaging.
Imaging was performed using an IN Cell Analyzer 1000 (GE Healthcare) utilizing the 51008bs dichroic for cells stained with Hoechst 33342 and Alexa Fluor 488. Exposure times were optimized from positive control wells and from untreated negative control wells stained with secondary antibody alone. Images from 15 fields per well were acquired to compensate for any cell loss during the bioassay and subsequent staining procedures. Measurements for total cell number and total SOX17 intensity were obtained from each well using IN Cell Developer Toolbox 1.7 (GE Healthcare) software. Segmentation for the nuclei was determined based on grayscale levels (baseline range 100-300) and nuclear size. Averages and standard deviations were calculated for each replicate data set. […]

[1] = supernatant concentration 1x, assay dilution 1:20
[2] = supernatant concentration 1x, assay dilution 1:20, control = R&D Sys Activin A 100 ng/ml on same plate
[3] = supernatant concentration 10x, assay dilution 1:20
[4] = supernatant concentration 10x, assay dilution 1:20, control = R&D Sys Activin A 100 ng/ml on same plate
[5] = supernatant concentration 10x, assay dilution 1:40
[6] = supernatant concentration 10x, assay dilution 1:40, control = R&D Sys Activin A 100 ng/ml on same plate
[7] = concentrated supernatant (10x; ACTD3 4x), assay dilution 1:20

R&D Sys Activin A was tested, and the “Cell Number average” value (assay concentration 6.25 ng/ml) was 5540, the “Sox 17 Intensity % of control” value (assay concentration 6.25 ng/ml) was 13% and the “Sox 17 Intensity average” value (assay concentration 6.25 ng/ml) was 5.49E+06. For the same molecule, the “Cell Number average” value (assay concentration 12.5 ng/ml) was 5784, the “Sox 17 Intensity % of control” value (assay concentration 12.5 ng/ml) was 19% and the “Sox 17 Intensity average” value (assay concentration 12.5 ng/ml) was 8.10E+06. The “Cell Number average” value (assay concentration 25 ng/ml) was 6212, the “Sox 17 Intensity % of control” value (assay concentration 25 ng/ml) was 39% and the “Sox 17 Intensity average” value (assay concentration 25 ng/ml) was 1.69E+07. For the same molecule, the “Cell Number average” value (assay concentration 50 ng/ml) was 6218, the “Sox 17 Intensity % of control” value (assay concentration 50 ng/ml) was 33% and the “Sox 17 Intensity average” value (assay concentration 50 ng/ml) was 1.45E+07. The “Cell Number average” value (assay concentration 100 ng/ml) was 8680, the “Sox 17 Intensity % of control” value (assay concentration 100 ng/ml) was 100% and the “Sox 17 Intensity average” value (assay concentration 100 ng/ml) was 4.37E+07. The “Cell Number average” value (assay concentration 200 ng/ml) was 12032, the “Sox 17 Intensity % of control” value (assay concentration 200 ng/ml) was 285% and the “Sox 17 Intensity average” value (assay concentration 200 ng/ml) was 1.25E+08. The “Cell Number average” value (assay concentration 400 ng/ml) was 13961, the “Sox 17 Intensity % of control” value (assay concentration 400 ng/ml) was 396% and the “Sox 17 Intensity average” value (assay concentration 400 ng/ml) was 1.73E+08.

B1: ACTN41: activin A variant peptide, SEQ ID 42 (protein)
chain: GLECDGKVNLCCKKQDFVSFKDIGWNDWIIAPSGYHANSCSGLCPSHIAGTSGSSLSFHSTVINHYRMRGHSPFSDRGACCIPTKLRPMSMLYYDDGQNIIKKDIQNMIVEECGCS
With B1 the “Cell Number average” value [1] was 6073, the “Sox 17 Intensity average” value [1] was 1.42E+05 and the “Sox 17 Intensity % of control” value [2] was 1.5%. The “Cell Number average” value [3] was 1397, the “Sox 17 Intensity average” value [3] was 1.46E+05 and the “Sox 17 Intensity % of control” value [4] was 1.6%. The “Cell Number average” value [5] was 2643, the “Sox 17 Intensity average” value [5] was 6.30E+04 and the “Sox 17 Intensity % of control” value [6] was 0.7%.

B2: OriGene wildtype: wildtype human activin A expressed from commercial OriGene construct (Cat. No. TC118774, pCMV6-XL4); supernatant used as positive control (protein, UniProt P08476 311-426, looked up)
Inhibin beta A chain: GLECDGKVNICCKKQFFVSFKDIGWNDWIIAPSGYHANYCEGECPSHIAGTSGSSLSFHSTVINHYRMRGHSPFANLKSCCVPTKLRPMSMLYYDDGQNIIKKDIQNMIVEECGCS
modifications: Inhibin beta A chain activin A homodimer
With B2 the “improvement of functional activity on concentrating the supernatant” value (HEK293-E supernatant, 4× concentrated versus 1× (neat)) was “approximately 1.5 fold”, the “activity (SOX17 intensity) of supernatants” value (HEK293-E supernatants, OriGene in pCMV6-XL4 compared with ACTN 1 in pcDNA3.1(−)) was “much greater activity; also recorded: superior” and the “Cell Number average” value [1] was 979. The “Sox 17 Intensity average” value [1] was 1.819E+07, the “Sox 17 Intensity % of control” value [2] was 9.9% and the “Cell Number average” value [3] was 5548. The “Sox 17 Intensity average” value [3] was 2.035E+08, the “Cell Number average” value (supernatant concentration 10x, assay dilution 1:20, assay plates #007, #009, #010, listed as OriGENE WT) was 12727 and 7061 and 11356 and the “Cell Number average” value (supernatant concentration 50x, assay dilution 1:20, assay plates #008, #009, listed as OriGENE WT) was 12200 and 9025. The “Sox 17 Intensity % of control” value (supernatant concentration 50x, assay dilution 1:20, control = R&D Sys Activin A 100 ng/ml on same plate, listed as OriGENE WT) was 409.0% and 285.3%.

B3: R&D Sys Activin A (protein, UniProt P08476 311-426, looked up)
Inhibin beta A chain: GLECDGKVNICCKKQFFVSFKDIGWNDWIIAPSGYHANYCEGECPSHIAGTSGSSLSFHSTVINHYRMRGHSPFANLKSCCVPTKLRPMSMLYYDDGQNIIKKDIQNMIVEECGCS
modifications: Inhibin beta A chain activin A homodimer
For B3, the “Sox 17 Intensity % of control” value (100 ng/ml (the control itself)) was 100% and the “Sox 17 Intensity % of control” value (100 ng/ml (the plate's control itself)) was 100%.

B4: ACTN38: activin A variant peptide, SEQ ID 39 (protein)
chain: GLECDGKVNLCCKKQDFVSFKDIGWNDWIIAPSGYHANKCGGKCPSHIAGTSGSSLSFHSTVINHYRMRGHSPFSQLGACCVPTKLRPMSMLYYDDGQNIIKKDIQNMIVEECGCS
In the case of B4, the “Cell Number average” value [1] is reported as 2023, the “Sox 17 Intensity average” value [1] is reported as 9.26E+04 and the “Sox 17 Intensity % of control” value [2] is reported as 1.0%. For the same molecule, the “Cell Number average” value [3] was 3019, the “Sox 17 Intensity average” value [3] was 3.89E+05 and the “Sox 17 Intensity % of control” value [4] was 4.2%. The “Cell Number average” value [5] was 2520, the “Sox 17 Intensity average” value [5] was 3.56E+04 and the “Sox 17 Intensity % of control” value [6] was 0.4%.

B5: ACTN16: activin A variant peptide, SEQ ID 17 (protein)
chain: GLECDGKVNLCCKKQLFVSFKDIGWNDWIIAPSGYHANHCSGLCPSHIAGTSGSSLSFHSTVINHYRMRGHSPFSQMGACCVPTKLRPMSMLYYDDGQNIIKKDIQNMIVEECGCS
For B5, the “Cell Number average” value [7] was 8775, the “Sox 17 Intensity average” value [7] was 3.89E+07 and the “Sox 17 Intensity % of control” value (concentrated supernatant (10x; ACTD3 4x), assay dilution 1:20, control = R&D Sys Activin A 100 ng/ml) was 89%. The “higher potency of supernatant concentrated 10× relative to corresponding unconcentrated supernatant” value (primary screening, SOX17 expression, H1 cells) was 4 fold, the “Cell Number average” value [1] was 7068 and the “Sox 17 Intensity average” value [1] was 1.36E+07. The “Sox 17 Intensity % of control” value [2] was 52.7%, the “Cell Number average” value [3] was 11118 and the “Sox 17 Intensity average” value [3] was 5.55E+07. For the same molecule, the “Sox 17 Intensity % of control” value [4] was 214.4%, the “Cell Number average” value [5] was 11064 and the “Sox 17 Intensity average” value [5] was 6.46E+07. For the same molecule, the “Sox 17 Intensity % of control” value [6] was 249.3%.

B6: ACTN35: activin A variant peptide, SEQ ID 36 (protein)
chain: GLECDGKVNLCCKKQDFVSFKDIGWNDWIIAPSGYHANRCSGKCPSHIAGTSGSSLSFHSTVINHYRMRGHSPFSDMGSCCVPTKLRPMSMLYYDDGQNIIKKDIQNMIVEECGCS
With B6 the “Cell Number average” value [1] was 8553, the “Sox 17 Intensity average” value [1] was 7.94E+04 and the “Sox 17 Intensity % of control” value [2] was 0.3%. For the same molecule, the “Cell Number average” value [3] was 6805, the “Sox 17 Intensity average” value [3] was 1.26E+06 and the “Sox 17 Intensity % of control” value [4] was 4.3%. The “Cell Number average” value [5] was 7926, the “Sox 17 Intensity average” value [5] was 6.76E+05 and the “Sox 17 Intensity % of control” value [6] was 2.3%.

B7: ACTN39: activin A variant peptide, SEQ ID 40 (protein)
chain: GLECDGKVNLCCKKQNFVSFKDIGWNDWIIAPSGYHANECSGLCPSHIAGTSGSSLSFHSTVINHYRMRGHSPFSDMGSCCVPTKLRPMSMLYYDDGQNIIKKDIQNMIVEECGCS
In the case of B7, the “Cell Number average” value [1] is reported as 1596, the “Sox 17 Intensity average” value [1] is reported as 5.13E+04 and the “Sox 17 Intensity % of control” value [2] is reported as 0.5%. The “Cell Number average” value [3] was 3362, the “Sox 17 Intensity average” value [3] was 1.31E+06 and the “Sox 17 Intensity % of control” value [4] was 14.0%. For the same molecule, the “Cell Number average” value [5] was 1331, the “Sox 17 Intensity average” value [5] was 4.81E+05 and the “Sox 17 Intensity % of control” value [6] was 5.1%.

B8: ACTN43: activin A variant peptide, SEQ ID 44 (protein)
chain: GLECDGKVNYCCKKQDFVSFKDIGWNDWIIAPSGYHANRCDGKCPSHIAGTSGSSLSFHSTVINHYRMRGHSPFSDMGACCVPTKLRPMSMLYYDDGQNIIKKDIQNMIVEECGCS
For B8, the “Cell Number average” value [1] was 657, the “Sox 17 Intensity average” value [1] was 1.85E+04 and the “Sox 17 Intensity % of control” value [2] was 0.2%. The “Cell Number average” value [3] was 877, the “Sox 17 Intensity average” value [3] was 2.13E+05 and the “Sox 17 Intensity % of control” value [4] was 2.3%. For the same molecule, the “Cell Number average” value [5] was 1251, the “Sox 17 Intensity average” value [5] was 5.57E+04 and the “Sox 17 Intensity % of control” value [6] was 0.6%.
